Data as given in patent publication US20040122077.

Key:
[1] = tested on: T1, wild type eNOS peptide 1174-RIRTQSFSLQERHLRGAVPWA-1194
T1 sequence: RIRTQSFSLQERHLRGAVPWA

[2] = tested on: T2, mutant eNOS peptide (1174-1194) with serine 1179 substituted by alanine
T2 sequence: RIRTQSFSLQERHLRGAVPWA

endogenous eNOS of HUVEC = target: T3, endogenous eNOS of HUVEC (UniProt P29474)
T3 sequence: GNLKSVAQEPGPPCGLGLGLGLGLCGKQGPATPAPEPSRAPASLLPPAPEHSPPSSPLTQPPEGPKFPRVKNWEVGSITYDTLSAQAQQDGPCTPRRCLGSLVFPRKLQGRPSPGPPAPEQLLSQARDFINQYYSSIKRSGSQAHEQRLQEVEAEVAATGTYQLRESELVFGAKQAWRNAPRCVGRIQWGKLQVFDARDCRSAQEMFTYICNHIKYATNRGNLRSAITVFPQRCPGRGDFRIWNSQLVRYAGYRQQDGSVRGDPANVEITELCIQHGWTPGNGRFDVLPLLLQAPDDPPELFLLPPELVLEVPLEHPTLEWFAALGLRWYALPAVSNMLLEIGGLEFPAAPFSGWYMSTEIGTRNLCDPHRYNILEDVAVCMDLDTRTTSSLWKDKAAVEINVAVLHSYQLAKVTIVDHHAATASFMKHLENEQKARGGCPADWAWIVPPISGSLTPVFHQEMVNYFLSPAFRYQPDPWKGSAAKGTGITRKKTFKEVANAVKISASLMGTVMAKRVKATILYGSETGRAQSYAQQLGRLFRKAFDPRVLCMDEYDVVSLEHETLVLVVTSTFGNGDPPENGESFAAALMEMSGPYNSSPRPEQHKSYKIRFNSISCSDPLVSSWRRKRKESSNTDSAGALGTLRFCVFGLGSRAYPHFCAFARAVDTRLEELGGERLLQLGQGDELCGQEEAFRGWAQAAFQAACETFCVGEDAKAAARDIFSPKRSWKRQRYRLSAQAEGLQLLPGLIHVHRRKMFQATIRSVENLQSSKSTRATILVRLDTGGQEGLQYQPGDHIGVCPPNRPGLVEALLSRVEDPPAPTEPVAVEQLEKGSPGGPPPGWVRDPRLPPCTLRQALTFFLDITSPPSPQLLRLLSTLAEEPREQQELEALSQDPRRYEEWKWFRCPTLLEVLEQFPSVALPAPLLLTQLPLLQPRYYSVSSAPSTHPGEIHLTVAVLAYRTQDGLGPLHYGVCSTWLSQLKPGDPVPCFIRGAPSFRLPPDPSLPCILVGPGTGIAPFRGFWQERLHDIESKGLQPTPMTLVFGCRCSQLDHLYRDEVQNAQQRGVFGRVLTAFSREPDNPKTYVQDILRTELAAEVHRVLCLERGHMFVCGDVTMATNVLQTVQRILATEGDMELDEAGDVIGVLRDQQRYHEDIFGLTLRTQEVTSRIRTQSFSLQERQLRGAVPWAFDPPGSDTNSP

Row | Substance | phosphorylation of histone H2B by immunoprecipitated Akt (autoradiography) (histone H2B) | 32P incorporation into eNOS peptide by immunoprecipitated Akt (in vitro kinase assay) [1] | 32P incorporation into eNOS peptide by immunoprecipitated Akt (in vitro kinase assay) [2] | 32P-phosphate incorporation into endogenous eNOS in HUVEC (immunoprecipitation, autoradiography) (endogenous eNOS of HUVEC)
1 | Akt immunoprecipitated from HUVEC lysate with goat polyclonal anti-Akt1 antibody | Akt polypeptide kinase activity was increased in lysates of HUVEC treated with 1.0 µM simvastatin or 100 ng/ml VEGF | Activation of Akt kinase activity was also observed when lysates prepared from simvastatin-treated cells were tested for their ability to phosphorylate a peptide containing the Akt phosphorylation site of eNOS (amino acids 1174 to 1194) | a peptide with alanine substituted for serine at position 1179 did not incorporate appreciable phosphate under any condition tested | 
2 | constitutively-active Akt (myrAkt), expressed in HUVEC from an adenovirus |  |  |  | adenovirus-mediated transduction of constitutively-active Akt (myrAkt) led to the incorporation of phosphate into eNOS in the absence of stimulation with simvastatin or VEGF
